± gives the uncertainty stated by the source.
Test: amyloid nucleation score (Sup35N fusion, yeast selection) (log enrichment); library NNK3; higher = more nucleation; inactive = no reads after selection
Summary of the method: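 Nucleation score is defined as the DiMSum log enrichment of output over input reads, with centring on the mode score of non-aggregating sequences. A minimum of 100 input reads was required for each sequence. Reads came from Illumina sequencing of plasmid inserts from psi-negative yeast expressing Sup35N fused to peptides of 20 random codons, induced with 100 μM copper sulfate for 24 hours and grown 7 days at 30°C on medium lacking adenine and uracil.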

| Substance | amyloid nucleation score |
| --- | --- |
| RFQYLNYCMFMVRCGHYDTS | inactive |
| RFRMHIIYKRKGIACVRSTS | inactive |
| RFRSRS | -0.02 ± 1.1 |
| RFSIPMLQRCLWLTGPVCPI | inactive |
| RFSWWRW | 1.24 ± 0.14 |
| RFVGSGCSGWCSRARDLWWL | inactive |
| RFVTRCREDSVTLKHG | inactive |
| RFWCLVVCTRLVHMENGRCS | inactive |
| RFYGYTLY | inactive |
| RGCTGIKPLPTSWACAFSTS | inactive |
| RGDMMGLSTENTLLLYDVGR | inactive |
| RGDVWLELKGLFAIFCYSEL | 2.96 ± 0.062 |
| RGICGNQLCRVMPLLNPHGC | inactive |
| RGIWGLSLYGVISNVSGLSK | -0.103 ± 0.43 |
| RGMKDCCTRWALRYWDVSVL | inactive |
| RGNKTI | inactive |
| RGRIVLNQRLNCDDEDGISE | inactive |
| RGSKQLDWHSYYNRVLDIGR | -0.296 ± 0.88 |
| RGSPFSWVGPSDRSWSPKFP | inactive |
| RGTRTGPRDRTLFMSKAVRS | 0.364 ± 0.39 |
| RGWYINTVGYRTRAGHNLCG | inactive |
| RGYSFCRPSHWWKARCVEGE | inactive |
| RHAYQRWLIFC | inactive |

| Substance | amyloid nucleation score |
| --- | --- |
| RHCWVPGCDRQCKWYFEGTS | inactive |
| RHEHREGNGDVPLNV | inactive |
| RHLMYPNRNMMVWSSFSDLG | inactive |
| RHLPQESKRSSVAAISLM | inactive |
| RHSQFTVVFCNRGRCAGLAA | inactive |
| RHVNEGLVRGFNPSRTLKGK | inactive |
| RIDRSYACALSWHVLYVNR | 0.436 ± 0.23 |
| RIGQMFLILVFKGLL | inactive |
| RIIAGWTYRSSQIWYFRDPH | inactive |
| RIKAYVGLFTVSWGSWGRRR | 1.44 ± 0.14 |
| RIKLRLFTTHEYCSRDRCSD | inactive |
| RIKSSTYSMSLVGAQ | inactive |
| RILCRVRYM | inactive |
| RINSVQGDGVLNLCPRLRVP | inactive |
| RIPKTKRYHPCYVRLRRSVY | inactive |
| RIRVSNVCSHQFWLIYGNDT | 2.15 ± 0.057 |
| RISAFWLYTACQFGSDLDTC | inactive |
| RITGALRAFGSRTFCASCVC | inactive |
| RITIMFGSLINDLHFCNA | 2.87 ± 0.052 |
| RIWRPLTFMSLDLMIMWCRH | inactive |
| RIYKNRSSSGILLNERFPGL | -0.46 ± 1.3 |
| RIYTYKRIYRIKVLITWNRL | inactive |
| RKDLCDFSYLHGDPGAKPEL | inactive |

| Substance | amyloid nucleation score |
| --- | --- |
| RKEVEGGVPALYDDMRIFES | inactive |
| RKGLL | inactive |
| RKGTWPHLGTVNRRVQRWVY | inactive |
| RKHAGLYLQYE | inactive |
| RKHLDLT | inactive |
| RKLFFEFFFCDSVH | inactive |
| RKTSV | -0.071 ± 0.28 |
| RLAGCYYIP | inactive |
| RLASGLNPFYVRG | inactive |
| RLDGSMSGCFSTFWNWNIVR | inactive |
| RLFMGRS | inactive |
| RLHRLKDFTRNGCEYSSHLS | inactive |
| RLHTMWTYP | inactive |
| RLLLSGSSVAICCGQLGLGF | 2.11 ± 0.097 |
| RLLMKV | inactive |
| RLLSAV | inactive |
| RLNGRDHL | inactive |
| RLQMGVLDLFYFD | inactive |
| RLRGVGIIVGGASQSSSQLR | inactive |
| RLRLYFRLTKNFHSMNHW | inactive |
| RLSGNADYNNWTF | 0.436 ± 0.67 |
| RLSGVIGT | inactive |
| RLSRSRKRYFFGFR | inactive |

| Substance | amyloid nucleation score |
| --- | --- |
| RLSSLPHCVIM | inactive |
| RLSWSQPVLNVSTCEGVN | inactive |
| RLTVYISQRKKHHCLMERSH | 0.221 ± 0.33 |
| RLVRSMAFYNHVIYL | 0.012 ± 0.28 |
| RLVVVYLGTNSTSKEDISC | 0.332 ± 0.23 |
| RLWLRKT | inactive |
| RLYFYDEKCIGCHGSNSLTQ | inactive |
| RMENWLRCL | inactive |
| RMGLTEMWHVIPSITSRQYL | inactive |
| RMGYFSCQVRYSRFLTIPSR | inactive |
| RMNNLSGEQKQLCDLSLAVR | inactive |
| RMSLNFNSQPRSLVMGNKYS | inactive |
| RMSLRAELVKVNLEAIPNWT | inactive |
| RMSLSGRYRHFWSGRCVCRE | inactive |
| RMVRIALTL | inactive |
| RMYPHE | inactive |
| RMYWAV | 1.02 ± 0.19 |
| RNFRRVSSRF | inactive |
| RNGVHS | 0.149 ± 0.81 |
| RNIQWRFIP | inactive |
| RNKVKQTE | inactive |
| RNMGYVTDNYLYTVLYYDCY | inactive |
| RNPWKFAATRFRLLQNPLVE | -0.185 ± 0.9 |

| Substance | amyloid nucleation score |
| --- | --- |
| RNSFVLWMVSSV | -0.01 ± 0.45 |
| RNSSNGSVHKQVFAVELKVP | inactive |
| RNSSYYLMASVDCVRFH | inactive |
| RPCNVMEKRDSTNIVTRFT | inactive |
| RPFLSMS | inactive |
| RPGVC | inactive |
| RPRTRNRRSSISWAKAL | inactive |
| RPSCMFCPSHAMARLPPVGS | inactive |
| RQERCGSALPCCCKMIDRRA | inactive |
| RQGYVADNSTGESDIGDGLG | inactive |
| RQLTLSRITNLSLK | inactive |
| RQYRSLRFSVLVYPSHISKG | 0.544 ± 0.17 |
| RRCMFIFSYWPRRVLATVLK | inactive |
| RRDSDIDRALSLGYASRTTK | inactive |
| RRIASEWDLTTVPLLLV | inactive |
| RRKLTAMVNTGEWMSQDDGS | inactive |
| RRKWHEYSVVMSRTNHMCIW | -0.118 ± 0.58 |
| RRLHSIAFVHRCLIIICCMG | inactive |
| RRMAETKHGAPMQRVLK | inactive |
| RRMLIGFHVFSYYWDNEYTR | 0.611 ± 0.14 |
| RRMRFCKTSYEYLCNYAAPK | inactive |
| RRNMWG | inactive |
| RRRFCVKGSPGVRFVEWTLR | -0.696 ± 1.1 |

| Substance | amyloid nucleation score |
| --- | --- |
| RRTWGSMYTKVLSISFLGPG | 1.48 ± 0.1 |
| RRVQKERSLKC | inactive |
| RRVSHLFLRTCCPSWTYYHL | inactive |
| RRWTTEVKQVHDYCG | inactive |
| RRYGTDRLLMRYSIENFCVL | inactive |
| RSAFGIGFPGGYCVLDHYER | inactive |
| RSALILAWHCRSMSLQDAEG | inactive |
| RSERVRNSKLTVCVIYKYIK | inactive |
| RSEVRR | -0.013 ± 0.51 |
| RSEWQMTRNYRVWGCYI | inactive |
| RSFKWNSECILWVSMLFSM | inactive |
| RSLLGGSKAVYTWDWQPAII | inactive |
| RSLTLKLTGGVLALMRS | inactive |
| RSNMHC | inactive |
| RSNNGSSERGGDIEDLSPNK | inactive |
| RSQWLFISKKFDLAIYIAV | inactive |
| RSRET | inactive |
| RSRILMYYYKISLFYRIKVM | inactive |
| RSRRFGYSAAISFTIGNLNS | 1.28 ± 0.13 |
| RSRYSSLPLPVV | inactive |
| RSSFVWTSRHFVV | inactive |
| RSVFCKKFPDKNMVVFGVHL | inactive |
| RSVFTTSCH | inactive |

| Substance | amyloid nucleation score |
| --- | --- |
| RSVVLLAMMSGYRDISIFRT | inactive |
| RSVVVIYKRCGLYLKS | inactive |
| RSWSETC | inactive |
| RTDFHPLYLILWNQRK | 1.9 ± 0.098 |
| RTDYVISNVAMCNSLLC | 2.8 ± 0.082 |
| RTISGYSPSIVGQRDSRGFL | inactive |
| RTKKY | inactive |
| RTLAVSIRNQWPYIGLARDT | inactive |
| RTPPLRTQLESKSIFKEMAR | inactive |
| RTSYNTFGGFYTNGWTLILR | inactive |
| RTTAK | inactive |
| RTYLDYGVNALLCPLTWGFS | -0.071 ± 0.73 |
| RVACFQIHGK | inactive |
| RVAFSMESTPWSMFTSRTAE | inactive |
| RVDPTSRMSGIYHWILT | inactive |
| RVFGGEIRLSRTCVVM | 1.27 ± 0.17 |
| RVFHP | inactive |
| RVFYCNL | 1.6 ± 0.059 |
| RVGAVMVEGRFLYHA | 0.522 ± 0.38 |
| RVMCTYTRYLWFKFISLMMV | inactive |
| RVMMSAACHLILCWNWPKWK | inactive |
| RVNRSLGIVSIECRWVVIRG | inactive |
| RVRNDYLPDRHWFSKHRGTK | inactive |
